The supplement of paper PMC9732359
± gives the uncertainty stated by the source.

Assay: protein stability index of a GFP-peptide fusion (yeast GPS) (PSI 1-4); higher = more stable; sorted into four equal gates, so the index is relative within each strain
How it was run: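 Yeast carrying a pooled library were grown to mid-log phase in leucine-free medium. Each library plasmid expresses Cherry and has a tiled 17-residue yeast protein peptide fused downstream of GFP. Cells were sorted into four equal gates by GFP/Cherry ratio, and plasmids from each gate were PCR-amplified, Illumina-sequenced and assigned to strains by barcode. Summing, across gates, the read frequency times the gate number gave each peptide's protein stability index.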

| Sequence | protein stability index (doa10∆) | protein stability index (pdr5∆) | protein stability index (ubr1∆) | protein stability index (san1∆) |
| --- | --- | --- | --- | --- |
| ERVQSDENKDDELVKLL [SRP68] | 3.52 ± 0.17 | 3.42 ± 0.12 | 2.96 ± 0.23 | – |
| RIYTNSFIDIMEVLGIE [RPO21] | 2.84 ± 0.059 | 2.94 ± 0.052 | 2.81 ± 0.041 | 3.02 ± 0.045 |
| ENEMIKPMNKGQHKNNT [SWP82] | 3.36 ± 0.081 | 3.19 ± 0.12 | 3.26 ± 0.049 | 3.33 ± 0.09 |
| QYQLLYNLKNDILTNLE [SWI1] | 1.81 ± 0.033 | 1.89 ± 0.037 | 1.65 ± 0.031 | 1.74 ± 0.077 |
| GIEYNRVTNTTSTDFPG [RPC40] | 3.33 ± 0.22 | 3.33 ± 0.14 | 2.94 ± 0.096 | 2.73 ± 0.082 |
| QDGVLLVALSNEPAARL [FAS2] | 1.89 ± 0.063 | 1.9 ± 0.06 | 1.46 ± 0.071 | 2.68 ± 0.09 |
| NTILNSSSDFRLHYYPK [BRR2] | 2.75 ± 0.054 | 3.17 ± 0.067 | 3.11 ± 0.042 | 2.81 ± 0.048 |
| GCIKIYSSRVDSVTTET [BRN1] | 2.43 ± 0.14 | 2.52 ± 0.13 | 2.12 ± 0.17 | 2.35 ± 0.21 |
| GYRSRTRYMFQRDFRKH [RPL21A] | 3.16 ± 0.07 | 3.19 ± 0.08 | 3.3 ± 0.049 | 3.16 ± 0.049 |
| GDRQRLGEEHPLQVARC [RPT1] | 1.43 ± 0.097 | 1.32 ± 0.19 | 1.53 ± 0.15 | 3.25 ± 0.22 |
| KKEANLFPEQQNKEIKA [RPL6A] | 3.38 ± 0.12 | 3.43 ± 0.088 | 3.3 ± 0.093 | 3.21 ± 0.076 |
| SGEDTNVGLPILKSLKN [YOR098C/NUP1] | 2.95 ± 0.1 | 3.16 ± 0.13 | 3.28 ± 0.12 | 2.85 ± 0.069 |
| ALILADSEIEISSEKLL [RPP1A] | 1.95 ± 0.13 | 1.87 ± 0.11 | 2.06 ± 0.081 | 1.94 ± 0.096 |
| FEIIFPPTDTNVEESVS [POP5] | 2.91 ± 0.091 | 2.68 ± 0.085 | 3.09 ± 0.12 | 2.47 ± 0.071 |
| RENIAMLKRFFPGVKGL [SMC1] | 2.5 ± 0.17 | 2.49 ± 0.2 | 2.43 ± 0.15 | 2.01 ± 0.13 |
| GQNCLDIDGIMDNPRKL [SNU114] | – | 3.43 ± 0.27 | 3.81 ± 0.27 | 3.4 ± 0.092 |
| KTYGISDDIISQVDPIT [FAS2] | 1.71 ± 0.16 | 1.1 ± 0.12 | 1.06 ± 0.13 | – |
| YASYFPYLLETYANVLI [RPN7] | 1.57 ± 0.088 | 1.43 ± 0.062 | 1.08 ± 0.043 | 1.18 ± 0.096 |
| PNIVEIDLDNDEDDDED [DLS1] | 3.17 ± 0.084 | 3.29 ± 0.065 | 3.04 ± 0.15 | 2.89 ± 0.1 |
| NPYNIVPQGKIVALTNA [SMC3] | 2.77 ± 0.14 | 2.78 ± 0.086 | 3.11 ± 0.078 | 2.82 ± 0.12 |
| VPGPGTKLIQYEHNGRT [CSL4] | 3 ± 0.092 | 3.06 ± 0.058 | 3.09 ± 0.056 | 3.25 ± 0.066 |
| SKKETKLQENRTLLTEE [SMC2] | – | 3.23 ± 0.24 | 3.08 ± 0.14 | – |
| QDRDRFFLRDTLLWNKN [SNF5] | 2.99 ± 0.056 | 3.08 ± 0.052 | 3 ± 0.039 | 2.83 ± 0.046 |
| ENPTDNFIIWINSIDTT [GRR1] | 2.44 ± 0.045 | 2.51 ± 0.053 | 2.74 ± 0.048 | 2.61 ± 0.049 |
| DQDSAVVSSNIKKIVAD [QCR2] | – | – | 3.14 ± 0.14 | – |
| LKQDLKKISSFKSLIDE [YGL172W/NUP49] | 2.81 ± 0.052 | 2.79 ± 0.05 | 3.06 ± 0.034 | 3.08 ± 0.04 |
| PKMGVSSSSLECATCHG [RPO31] | 2.97 ± 0.085 | 3.34 ± 0.049 | 3.2 ± 0.056 | 3.32 ± 0.097 |

| Sequence | protein stability index (doa10∆) | protein stability index (pdr5∆) | protein stability index (ubr1∆) | protein stability index (san1∆) |
| --- | --- | --- | --- | --- |
| DEFYINVDKNLNEIKEH [RPN14] | 2.51 ± 0.072 | 2.5 ± 0.054 | 2.92 ± 0.067 | 2.73 ± 0.062 |
| TATTGKRKPAKSSSNRS [RPN4] | 2.68 ± 0.065 | 2.96 ± 0.07 | 2.85 ± 0.047 | 2.68 ± 0.047 |
| PKLKRIGLVKCTQMTDE [GRR1] | 2.95 ± 0.073 | 2.89 ± 0.076 | 2.86 ± 0.047 | 2.81 ± 0.057 |
| HASKAIGLPRHSLAYLL [RRP6] | 2.24 ± 0.046 | 2.2 ± 0.048 | 1.72 ± 0.037 | 2.37 ± 0.059 |
| LHGLTPTAKDVEVIKQL [GAL11] | 3.08 ± 0.078 | 2.64 ± 0.13 | 2.26 ± 0.078 | – |
| FVEEQNVYVLPKNLLKK [PRP8] | 2.54 ± 0.056 | 2.5 ± 0.045 | 2.87 ± 0.059 | 2.54 ± 0.07 |
| GGVDVGPSVESYELRNT [SNF5] | 2.9 ± 0.1 | 3.15 ± 0.11 | 3.28 ± 0.079 | 3.04 ± 0.075 |
| CAECSSKLSLSRTDAVR [RPC10] | 2.12 ± 0.049 | 2.16 ± 0.047 | 2.35 ± 0.05 | 2.51 ± 0.061 |
| EGGEAEFIFGTYNMIDA [ARP7] | 2.79 ± 0.059 | 2.66 ± 0.055 | 2.83 ± 0.045 | 2.52 ± 0.054 |
| QLWLNSSGDFDDNNNNN [GRR1] | 3.19 ± 0.076 | 3.16 ± 0.07 | 3.06 ± 0.055 | 3.17 ± 0.1 |
| DLAERASELDESKDSIQ [SMC3] | 3.06 ± 0.093 | 3.1 ± 0.09 | 3.17 ± 0.06 | 2.83 ± 0.17 |
| PSVGVKTMKTFVIHIQE [RPB5] | 2.83 ± 0.087 | 2.82 ± 0.13 | 2.76 ± 0.1 | 2.47 ± 0.13 |
| SASLFKQRKNPRRIAWT [RPL24A] | 2.55 ± 0.11 | 2.9 ± 0.097 | 3.08 ± 0.059 | 2.96 ± 0.087 |
| METRINILLRERDSYKL [YIL149C/MLP2] | 1.96 ± 0.27 | 1.59 ± 0.11 | 2.3 ± 0.15 | 1.2 ± 0.27 |
| TSLFGSSSAQQTKSNGT [YJL041W/NSP1] | 3.23 ± 0.11 | 3.4 ± 0.098 | 3.19 ± 0.073 | 2.71 ± 0.13 |
| SSLSAIIVFGYPESISN [YDL088C/ASM4] | 1.75 ± 0.067 | 1.88 ± 0.046 | 2.01 ± 0.062 | 2.16 ± 0.086 |
| CNGSALVEARSLGHQTS [MTR3] | 3.52 ± 0.17 | – | – | 3.1 ± 0.22 |
| PFKVFLDIGLQRTTTGA [RPL5] | 1.63 ± 0.07 | 2.04 ± 0.074 | 1.53 ± 0.053 | 2.23 ± 0.076 |
| MAQTATQQQPGAPGANA [SRP54] | 3.31 ± 0.065 | 3.22 ± 0.088 | 3.21 ± 0.05 | 3.33 ± 0.054 |
| EGDELENKTKKDNDKNL [SRB4] | 3.33 ± 0.078 | 3.2 ± 0.077 | 3.27 ± 0.077 | 3.23 ± 0.055 |
| IRKLVKNGTIVKKAVTV [RPL19A] | 2.88 ± 0.17 | 3.08 ± 0.12 | 3.28 ± 0.072 | 3.15 ± 0.12 |
| NFILEVFGTIIPKISDY [YJL039C/NUP192] | 2.05 ± 0.17 | 1.68 ± 0.22 | 1.61 ± 0.26 | – |
| FICTTFRTDMLQVADKF [SMC3] | 1.38 ± 0.086 | 2.31 ± 0.12 | 1.67 ± 0.075 | 1.6 ± 0.089 |
| FQKFLTGHPKGAAGAWM [FAS2] | 1.31 ± 0.25 | – | 1.56 ± 0.18 | – |
| QSRVPTSLTSIKWENAF [PRP8] | 3.21 ± 0.077 | 3.3 ± 0.11 | 3.18 ± 0.048 | 3.44 ± 0.072 |
| EKRATSPLLESDSIEKI [PUP2] | 3.12 ± 0.087 | 3.07 ± 0.077 | 3.23 ± 0.068 | 3.29 ± 0.09 |
